The target in assay [1] is T1, core protein gp16 (bacteriophage T7), P03726.
T1 chain: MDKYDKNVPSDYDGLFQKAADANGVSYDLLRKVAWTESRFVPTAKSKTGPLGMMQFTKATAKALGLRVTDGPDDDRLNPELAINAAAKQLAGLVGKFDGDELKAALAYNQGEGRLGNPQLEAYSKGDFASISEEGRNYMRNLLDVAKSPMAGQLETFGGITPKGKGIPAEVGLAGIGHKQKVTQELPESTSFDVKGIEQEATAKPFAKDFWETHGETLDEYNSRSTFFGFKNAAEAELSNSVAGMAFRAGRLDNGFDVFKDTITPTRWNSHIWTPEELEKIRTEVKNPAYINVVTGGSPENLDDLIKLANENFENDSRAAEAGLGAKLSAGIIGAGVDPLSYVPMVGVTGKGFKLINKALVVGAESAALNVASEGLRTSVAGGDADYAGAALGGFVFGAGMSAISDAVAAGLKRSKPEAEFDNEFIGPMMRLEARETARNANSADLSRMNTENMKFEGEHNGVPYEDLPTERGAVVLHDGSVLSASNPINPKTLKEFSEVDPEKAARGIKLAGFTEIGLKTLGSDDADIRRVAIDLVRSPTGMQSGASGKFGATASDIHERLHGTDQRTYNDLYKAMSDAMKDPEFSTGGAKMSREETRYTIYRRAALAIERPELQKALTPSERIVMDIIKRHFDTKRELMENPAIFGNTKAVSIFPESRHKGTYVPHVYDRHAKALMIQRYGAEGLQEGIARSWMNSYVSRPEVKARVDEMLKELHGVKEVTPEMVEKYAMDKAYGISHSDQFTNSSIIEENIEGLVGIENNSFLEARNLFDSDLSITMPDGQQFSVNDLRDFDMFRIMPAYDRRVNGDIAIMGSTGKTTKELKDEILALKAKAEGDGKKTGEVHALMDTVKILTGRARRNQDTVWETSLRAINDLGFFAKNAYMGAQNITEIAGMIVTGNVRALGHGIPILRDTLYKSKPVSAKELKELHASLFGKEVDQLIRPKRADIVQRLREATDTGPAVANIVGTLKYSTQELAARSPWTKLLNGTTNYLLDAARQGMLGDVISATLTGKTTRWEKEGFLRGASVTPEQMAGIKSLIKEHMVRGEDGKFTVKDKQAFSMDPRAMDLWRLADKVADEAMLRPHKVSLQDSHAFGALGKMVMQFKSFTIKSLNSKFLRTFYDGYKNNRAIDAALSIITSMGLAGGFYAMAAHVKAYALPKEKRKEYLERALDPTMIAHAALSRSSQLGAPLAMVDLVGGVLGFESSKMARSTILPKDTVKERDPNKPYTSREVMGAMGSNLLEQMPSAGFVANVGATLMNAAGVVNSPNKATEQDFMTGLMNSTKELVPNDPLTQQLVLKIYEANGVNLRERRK
The experiment in a line: cryo-EM structure; mature T7 virions, in situ; entire particle asymmetric 6.1 Å; local reconstructions of core complex 3 Å (four-fold), portal 2.5 Å (twelve-fold), portal–tail complex 2.7 Å (six-fold). To be noted: remark: other sources report otherwise.

Assay [2] concerns the target T2, core protein gp15 (bacteriophage T7, UniProt P03725 1-747).
T2 construct: core protein gp15 of bacteriophage T7, as it stands in the mature virion; Eight-fold ring in the core of mature T7; source: T7 virions propagated in E. coli, purified (PEG precipitation, CsCl ultracentrifugation)
T2 sequence (looked up): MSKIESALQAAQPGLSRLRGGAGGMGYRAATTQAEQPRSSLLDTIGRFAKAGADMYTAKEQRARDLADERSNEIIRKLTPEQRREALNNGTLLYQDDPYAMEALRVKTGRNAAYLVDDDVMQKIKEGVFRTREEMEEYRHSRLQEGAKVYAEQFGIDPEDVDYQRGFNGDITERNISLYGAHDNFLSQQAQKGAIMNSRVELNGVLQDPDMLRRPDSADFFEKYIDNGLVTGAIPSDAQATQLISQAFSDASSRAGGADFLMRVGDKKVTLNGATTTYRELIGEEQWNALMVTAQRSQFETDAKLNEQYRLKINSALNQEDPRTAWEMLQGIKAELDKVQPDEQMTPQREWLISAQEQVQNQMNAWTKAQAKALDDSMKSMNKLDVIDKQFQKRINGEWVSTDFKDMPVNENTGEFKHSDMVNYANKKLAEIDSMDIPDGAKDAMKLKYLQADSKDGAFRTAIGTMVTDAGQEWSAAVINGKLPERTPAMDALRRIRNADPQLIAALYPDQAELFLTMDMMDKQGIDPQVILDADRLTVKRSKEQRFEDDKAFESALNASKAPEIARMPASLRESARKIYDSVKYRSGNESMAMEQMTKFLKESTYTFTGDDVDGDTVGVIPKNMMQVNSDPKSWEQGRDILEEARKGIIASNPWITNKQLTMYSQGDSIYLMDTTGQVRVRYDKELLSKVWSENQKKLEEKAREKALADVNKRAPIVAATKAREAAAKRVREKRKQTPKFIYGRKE
Described as above. Particulars: both partners purified.

The target in assay [3] is T3, portal protein gp8 (bacteriophage T7, UniProt P03728 1-536).
T3 construct: portal protein gp8 of bacteriophage T7, as it stands in the virion; Native virion protein; also called dodecameric portal; source: T7 virions propagated in E. coli, purified (PEG precipitation, CsCl ultracentrifugation); copies: 12
T3 sequence (looked up): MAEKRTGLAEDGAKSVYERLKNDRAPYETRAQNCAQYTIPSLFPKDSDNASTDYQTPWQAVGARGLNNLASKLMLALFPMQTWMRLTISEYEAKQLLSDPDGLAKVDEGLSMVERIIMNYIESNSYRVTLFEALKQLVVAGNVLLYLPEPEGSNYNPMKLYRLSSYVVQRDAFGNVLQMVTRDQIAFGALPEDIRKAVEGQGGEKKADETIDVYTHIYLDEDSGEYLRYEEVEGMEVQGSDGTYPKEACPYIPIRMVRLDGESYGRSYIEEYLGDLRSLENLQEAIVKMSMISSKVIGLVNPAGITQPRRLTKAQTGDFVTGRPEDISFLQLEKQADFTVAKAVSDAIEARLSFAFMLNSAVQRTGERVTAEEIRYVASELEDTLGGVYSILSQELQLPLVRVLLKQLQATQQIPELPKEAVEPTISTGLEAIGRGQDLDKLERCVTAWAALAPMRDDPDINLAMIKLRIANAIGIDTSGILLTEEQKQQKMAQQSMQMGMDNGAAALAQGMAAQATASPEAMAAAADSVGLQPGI
The assay is described as above. To be noted: both partners purified.

Assay [4] concerns the target T4, core protein gp14 (bacteriophage T7, UniProt P03724 1-196).
T4 construct: core protein gp14 of bacteriophage T7, 196 residues as printed; modelled residues 4-86 and 101-129 in mature T7, 25-143 in DNA-ejected T7; Eight copies resolved in the mature virion, six copies in the extended channel of DNA-ejected T7; source: T7 virions propagated in E. coli, purified (PEG precipitation, CsCl ultracentrifugation)
T4 sequence (looked up): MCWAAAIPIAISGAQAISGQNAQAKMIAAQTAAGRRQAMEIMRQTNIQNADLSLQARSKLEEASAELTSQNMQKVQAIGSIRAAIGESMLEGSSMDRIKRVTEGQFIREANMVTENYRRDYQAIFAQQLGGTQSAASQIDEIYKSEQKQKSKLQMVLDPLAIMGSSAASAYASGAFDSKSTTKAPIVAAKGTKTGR
The description is as above. Particulars: both partners purified.

Assay [5] deals with T5, nozzle protein gp12 (bacteriophage T7, UniProt P03747 1-794).
T5 construct: nozzle protein gp12 of bacteriophage T7, as it stands in the virion; Native virion protein; also called tail nozzle; source: T7 virions propagated in E. coli, purified (PEG precipitation, CsCl ultracentrifugation)
T5 sequence (looked up): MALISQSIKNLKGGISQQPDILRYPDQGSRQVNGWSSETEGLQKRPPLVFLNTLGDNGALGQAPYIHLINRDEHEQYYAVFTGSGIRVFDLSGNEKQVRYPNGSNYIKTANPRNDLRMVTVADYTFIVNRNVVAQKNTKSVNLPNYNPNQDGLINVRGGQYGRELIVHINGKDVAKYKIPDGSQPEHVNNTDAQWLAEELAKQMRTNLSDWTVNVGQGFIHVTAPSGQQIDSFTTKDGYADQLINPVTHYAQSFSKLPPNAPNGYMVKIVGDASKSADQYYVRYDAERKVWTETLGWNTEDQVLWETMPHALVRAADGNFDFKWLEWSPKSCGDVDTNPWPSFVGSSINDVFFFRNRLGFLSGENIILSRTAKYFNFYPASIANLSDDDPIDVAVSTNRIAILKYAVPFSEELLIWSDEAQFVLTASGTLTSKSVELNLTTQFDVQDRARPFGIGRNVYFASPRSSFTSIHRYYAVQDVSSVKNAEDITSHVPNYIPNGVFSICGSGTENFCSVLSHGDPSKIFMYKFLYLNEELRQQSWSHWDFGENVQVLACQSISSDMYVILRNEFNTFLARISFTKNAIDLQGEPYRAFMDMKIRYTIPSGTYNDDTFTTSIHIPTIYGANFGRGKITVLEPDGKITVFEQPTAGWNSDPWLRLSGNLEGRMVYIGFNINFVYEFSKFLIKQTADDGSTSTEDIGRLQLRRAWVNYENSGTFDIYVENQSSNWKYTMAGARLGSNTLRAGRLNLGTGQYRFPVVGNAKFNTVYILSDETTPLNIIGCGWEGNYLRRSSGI
The experiment in a line: cryo-EM structure; DNA-ejected T7: purified mature T7 incubated with rough LPS (250 µg/mL) at 37°C for 3 h; entire particle asymmetric 8.2 Å; portal–tail complex 3.5 Å (six-fold). Particulars: both partners purified.

The text below walks through data of publication PMC11784390, “Conformational changes in and translocation of small proteins: insights into the ejection mechanism of podophages” (Journal of Virology, 2024).

B1: core protein gp16, P03726 1-1318 (natural protein)
chain: T1 chain
B1 registered a stoichiometry N in assay [1] of 4.

B2: small protein gp6.7 (natural protein, bacteriophage T7, UniProt P03801 1-88, looked up)
chain: MCFSPKIKTPKMDTNQIRAVEPAPLTQEVSSVEFGGSSDETDTEGTEVSGRKGLKVERDDSVAKSKASGNGSARMKSSIRKSAFGGKK
notes: gp6.7 of bacteriophage T7, 88 residues as printed; modelled loop I (2-15) and loop II (34-50) in mature T7, conformer A 11-41 and conformer B 11-59 in DNA-ejected T7; Twelve copies in the mature virion and in the extended channel of DNA-ejected T7; also called core protein gp6.7; source: T7 virions propagated in E. coli, purified (PEG precipitation, CsCl ultracentrifugation)
Regarding B2, the binding result in assay [2], in assay [3], in assay [4] and in assay [5] was “binds” in each case.
